Assay results reported in paper PMC5007356.

Tests used:
[1] = target: GFP-Cdc27 (Drosophila melanogaster); assay: co-IP; anti-GFP immunoprecipitation with GFP-Trap-A beads from D. mel-2 cell lysates, 2 h at 4 °C; 10 mM Tris-HCl pH 7.5, 150 mM NaCl, 0.5 mM EDTA, NP40; immunoblot; band intensities quantified in ImageJ
[2] = target: GFP-Spd2 (Drosophila melanogaster); assay: as above

Molecule	co-IP efficiency [1]	precipitation efficiency (percent of input co-precipitated) [2]
Spd2 (endogenous) (from UniProt Q9VV79 1-1146) (natural protein)	2.7e-07	
Cdc27 (endogenous) (natural protein)		4.55%
Fzr (endogenous) (from UniProt O18402 1-478) (natural protein)		14.5%
Fzy (endogenous) (natural protein) MSQFNFVSDLQNALIMDGETRGPAPRWKKKLEASLNGSVNTTRSVLSVSYNTSFSGVQAPTKTPGKSSEGKTKKSNTTPSKTPGGGDRFIPNRAATNFELAHFLVNKDSGDKSDEENDKATSSNSNESNVQASAHKGDRQKLISEVAQVGDSKGGRILCYQNKAPAAPETHNNPLKVVYSIKTPISTKSGSRYIPTTSERILDAPDFINDYYLNLMDWSADNIVAVALGSCVYLWNAQTGNIEQLTEFEEGDYAGSLSWIQEGQILAIGNSTGAVELWDCSKVKRLRVMDGHSARVGSLAWNSFLVSSGSRDGTIVHHDVRAREHKLSTLSGHTQEVCGLKWSTDFKYLASGGNDNLVNVWSAASGGVGTATDPLHKFNDHQAAVRALAWCPWQPSTLASGGGTADRCIKFWNVNNGTLMKSVDSKSQVCSLLFSRHYKELISAHGFANNQLTIWKYPTMVKQADLTGHTSRVLQMAMSPDGSTVISAGADETLRLWNCFAPDPLASKKAVSTSKGKQSVFRQSIR		2.43%
